The values below are quoted from earlier work in paper PMC4586255.

Like-named read-outs stand apart in the source and are kept apart here.

Data set [1] has as its target PCNA (Homo sapiens) (UniProt P12004).
Data set [2] shares this target. The source holds these as a separate data set.

Chain of PCNA (Homo sapiens) (P12004 whole entry): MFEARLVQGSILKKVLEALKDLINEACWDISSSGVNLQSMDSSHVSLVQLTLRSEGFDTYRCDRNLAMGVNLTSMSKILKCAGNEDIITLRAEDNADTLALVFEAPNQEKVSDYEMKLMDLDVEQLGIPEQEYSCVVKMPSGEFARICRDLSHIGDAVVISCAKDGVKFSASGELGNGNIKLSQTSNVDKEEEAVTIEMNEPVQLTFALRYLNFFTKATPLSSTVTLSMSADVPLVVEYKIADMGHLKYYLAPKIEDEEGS
Chain of FEN1 PIP-box peptide PIP-box peptide (P39748 331-350): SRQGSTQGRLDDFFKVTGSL
Chain of p21 PIP-box peptide PIP-box peptide (P38936 139-160): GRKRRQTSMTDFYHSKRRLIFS

The term Kd denotes the concentration at which binding is half-saturated. For the substance “p21 PIP-box peptide PIP-box peptide (from UniProt P38936)”, the equilibrium dissociation constant (Kd) with PCNA (Homo sapiens) [1] is 0.082 µM. Regarding “FEN1 PIP-box peptide PIP-box peptide (from UniProt P39748)”, the Kd with PCNA (Homo sapiens) [2] was 59 µM.
